Tested on: MS2 coat protein
Test: apparent KD of MS2 coat protein; designed switch direction (-1 OFF switch, 1 ON switch): -1; higher = weaker reporter binding
Procedure, shortened: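 The buffer was Tris-HCl pH 7.5 with KCl, MgCl2, BSA, DTT, tRNA and Tween-20. In it, SNAP-549-labelled MS2 coat protein was titrated in doubling steps from 0.7 or 1.5 nM to 3 µM over chip-bound RNA switches transcribed by stalled E. coli RNA polymerase on Illumina chips. Apparent KD is the per-design median over clusters of curve fits to normalised fluorescence.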

[1] = Eterna round: R95, input ligand: FMN 200 uM
[2] = Eterna round: R95, input ligand: microRNA oligo, concentration not stated
[3] = Eterna round: R95, input ligand: none
[4] = input ligand: microRNA oligo, concentration not stated

Sequence | apparent KD of MS2 coat protein [1] [nM] | apparent KD of MS2 coat protein [2] [nM] | apparent KD of MS2 coat protein [3] [nM] | apparent KD of MS2 coat protein (input ligand: FMN 200 uM) [nM] | apparent KD of MS2 coat protein (input ligand: none) [nM] | apparent KD of MS2 coat protein [4] [nM]
GAUUAUGCGAGCUUUAGGGACAUGAGGAUCACCCAUGUUCGUCUUAUUGGUCUAGGUGCACUGACAUACCUAAAUCU [JMF 91] (puzzle: Sensor v3, turn-off variant 1) | 20.3 | 34.9 | 20.5 | – | – | –
CAUCCACAUGAGGAUCACCCAUGUCAGGAUAUUGUACAAACCCAAUCAUAUUGGGCGUCAAGAAGGGACAUUCU [EX1 B.5] (Eterna round: R97, puzzle: Exclusion 1) | – | – | – | 22.8 | 12.4 | –
GGAAUACAUGAGGAUCACCCAUGUAAGGAUAUGCUGAAUAACACGGAAUUAACGUGCAGCAGAAGGUACAAAGG [Mat - Mod of my Eli Mod D43] (puzzle: Exclusion 1) | 62.8 | 63.3 | 113 | – | – | –
UUUAAUUUUUUUUUUUUACAAGCUUUUUGCUCGUCUUAUACAUGAGGAUCACCCAUGUGGGUGAGAGAUAAAUUAUC [JMF 14] (puzzle: Sensor v3, turn-off variant 2) | 53.2 | 17 | 64.2 | – | – | –
GCAAGCUUAAUCUGUAUGAACAUGAGGAUCACCCAUGUAUAAGGUAAUUCUGUUGGGUUUUUUAUUGCUCGUCUUAU [JR_STOV1_Sub026] (Eterna round: R97, puzzle: Sensor, turn-off variant 1) | – | – | – | 71.8 | 76.9 | –
AGUAGUUGUUUCCGUUCUUACAUGAGGAUCACCCAUGUUUCUUGUCGUGCUCGCGUUGCUCGUCAGACUUCCUGUUG [salish99_TOv1_r3_063] (Eterna round: R96, puzzle: Sensor v3, turn-off variant 1) | – | – | – | 87.5 | 76.6 | 49.5
GGAAAAUGAGGAUAUACAUGUUUGAUACCUCUACGCCCGCAACAUGAGGAUCACCCAUGUAGAAGGCAUGAAAA [Marius] (puzzle: Exclusion 2) | – | 13.9 | – | – | – | –
UAUUUAAGAGGAUAUACAUGAGGAUCACCCAUGUAUAAUAAAAUACAUGAUUUUUUAUGUAGAAGGCUUGGGUA [-19.1, -18.3 kcal, 36% A] (Eterna round: R97, puzzle: Exclusion 3) | – | – | – | 72 | 21.1 | –
ACAAGCGUUAAGGAUAUACUGCCCUCAUUCUCGGUAGAAGGUAACACUUGAGGAUCACCCAAGUGAAAACCUGA [Erxeesis] (Eterna round: R97, puzzle: Exclusion 6) | – | – | – | 10.6 | 9.67 | –
UUUUAACAUGAGGAUCACCCAUGUGAGGAUAUCGAAAUUUAUAUUAAUAUUUUUAAAACGAGAAGGCACAUUUU [JMF 67] (puzzle: Exclusion 1) | – | 53.5 | – | – | – | –
GCCGGGCGUGUAGGAUAUGGCCGGCGGUGCCGGCCAGAAGGACAUGAGGAUCACCCAUGUGCCGGCCUUGGGCCGGCGCCCGGC [-51, -48 kcal and 14% A] (Eterna round: R96, puzzle: Exclusion NG 1) | – | – | – | 14.9 | 13.3 | 8.09
GCAAAGGUAGGAUAUCCACUGUGCAACAUGAGGAUCACCCAUGUGGUUCUUACCAUAAUUGGAGAAGGGCCGUGCA [Inrariri] (puzzle: Exclusion 5) | 19.7 | 19.3 | 24.2 | – | – | –
UGGUGGAAGCAGGAUAUGCUAGAAGUGUAGAAUGCAGAAGGGCUAACAUGAGGAUCACCCAUGUAAGAGGUGUU [JR_E6_Sub052] (puzzle: Exclusion 6) | – | 296 | – | – | – | –
UUUUUACAUGAGGAUCACCCAUGUCAGGAUAUCAUUAUAUUUUAUUAUUUUAUUUAUAUGAGAAGGGACUAUUA [My solution] (puzzle: Exclusion 1) | – | 93.8 | – | – | – | –
GUAGUGUGAGGAUAUGGUAAAGAUAAGAUGAUGAAAGAACUCCAGAAGGCACAUGAGGAUCACCCAUGUAGAUU [Mat - Exclusion 4 - Mod of JL - D26] (puzzle: Exclusion 4) | 49.8 | 19.7 | 26 | – | – | –
AUCCUACAUGAGGAUCACCCAUGUCAGGAUAUCCAAGAAAUCUGGCCGUAUCGGCCAGGGAGAAGGGACAUGGC [jl-ex1-4.66 ViennaUCT mod] (Eterna round: R97, puzzle: Exclusion 1) | – | – | – | 85.6 | 28.4 | –
AAGAAACAUGAGGAUCACCCAUGUGAGGAUAUGUAAAAGAAAAUAAAAUAAAGAAGAAACAGAAGGCACAAAGG [Mat - Mod of Hog D20] (puzzle: Exclusion 1) | 53.4 | 43.4 | 43 | – | – | –
AAGUAUAGAGGAUAUAGUAGGUACUACAUGAGGAUCACCCAUGUUCUUCAUUACGUAUUUCUAGAAGGCUGAUAAA [EX-5 Malc#26] (puzzle: Exclusion 5) | 484 | 174 | 268 | – | – | –

Sequence | apparent KD of MS2 coat protein [1] [nM] | apparent KD of MS2 coat protein [2] [nM] | apparent KD of MS2 coat protein [3] [nM] | apparent KD of MS2 coat protein (input ligand: FMN 200 uM) [nM] | apparent KD of MS2 coat protein (input ligand: none) [nM] | apparent KD of MS2 coat protein [4] [nM]
UCAAGUAUGUAGGAUAUCGAUGUCCUUGGACAUCGAGAAGGACGUACAUGAGGAUCACCCAUGUAACUUGCAUG [Exclusion 6 - B - 10:e] (Eterna round: R96, puzzle: Exclusion 6) | – | – | – | – | – | 131
GAAGAGACAGGAUAUACAUGAGGAUCACCCAUGUGAGGAGGUUGGAAGCGGAGAAGGUGUAGAAGGGUCAAAGA [JR_Exclu3_Sub023] (puzzle: Exclusion 3) | 75.1 | 37.1 | 80.7 | – | – | –
UUGGUGUCAGGAUAUGCUUAAUAUAUUUUAUUAUAAUAUAUACAUGAGGAUCACCCAUGUAGAAGGGACAUUGU [LRO-Excl2-07-Fireball XL5] (Eterna round: R97, puzzle: Exclusion 2) | – | – | – | 30.2 | 45.8 | –
AAGUAUAGAGGAUAUAGUGAGUACUACAUGAGGAUCACCCAUGUUCUUCAAAGCGUACUUCUAGAAGGCUGUUAAA [EX-5 Malc#17] (puzzle: Exclusion 5) | 452 | 263 | 214 | – | – | –
CCCUCACUUGAGGAUCACCCAAGUCAGGAUAUCUCCCGCCCAACACCAUCCGGGCGCCAGAGAAGGGACUCAAA [Soenonor] (Eterna round: R97, puzzle: Exclusion 1) | – | – | – | 24.4 | 17.5 | –
GAAGAGACAGGAUAUACAUGAGGAUCACCCAUGUGAGUAUGUUGGAGGCGGAGGAGGUGUAGAAGGGUCAAAGA [JR_Exclu3_Sub019] (puzzle: Exclusion 3) | – | 20.2 | – | – | – | –
AUCCUGCGAGGAUAUACAUAAUUUUUUUCGUUUUGACUCGAACAUGAGGAUCACCCAUGUAGAAGGUGCUUCAC [JR_Ex2_Sub027] (Eterna round: R97, puzzle: Exclusion 2) | – | – | – | 122 | 94.8 | –
UUAAUUUGAGGAUAUACUAUUAACCACAUGAGGAUCACCCAUGUUCUAUCAUGUAUAUGUGUAGAAGGCAGAAUGC [JR_Ex5_Sub071] (Eterna round: R97, puzzle: Exclusion 5) | – | – | – | 58.1 | 50.7 | –
UAUUAGCAAGCGAGAUCUCACAUGAGGAUCACCCAUGUGCUCGUCUUAUAAGGUACUGUGACGAUAGUCACGGUACC [Mat - Sensor, turn-off var - Eli Mod - D38] (Eterna round: R97, puzzle: Sensor, turn-off variant 1) | – | – | – | 15.3 | 14.6 | –
UGAGGACAUGAGGAUCACCCAUGUAAGGAUAUGCGGAGAGUUUGGAGAGGUUGAGGAGGCAGAAGGUACAGGAU [JR_Exclu1_Sub047] (puzzle: Exclusion 1) | – | 49.2 | – | – | – | –
AAAGUACAUGAGGAUCACCCAUGUCAGGAUAUUGCCACAAGGCCCGGAGCCCAGAGCGCGAGAAGGGACAUUAG [Eternabot (Original) Solution 12] (Eterna round: R97, puzzle: Exclusion 1) | – | – | – | 55.4 | 24 | –
UAAGAUUACCGAGGAUAUGGUAGUUUCUAUUAACCAGAAGGCGGACUCAACAUGAGGAUCACCCAUGUAUAAAGGGUAUUAGAU [JR_ExcNG1_Sub041] (Eterna round: R96, puzzle: Exclusion NG 1) | – | – | – | 91.7 | 116 | 56.4
AGCAUGGUAGGAUAUACGGAACAUUAGGGUUUGUUAUGUGGACAUGAGGAUCACCCAUGUAGAAGGGCCGUGCA [Mat - Exclusion 2 - Mod of JL - D80] (puzzle: Exclusion 2) | – | 32.3 | – | – | – | –
GCCUGUGAAGGAUAUACAUGAGGAUCACCCAUGUGGCGGGCAUACCCGCCGAGACCGUGUAGAAGGUCAUAGUA [Telamais] (puzzle: Exclusion 3) | – | 49.9 | – | – | – | –
UCCCACCGAGGAUAUGACCAUCAGAACAUGAGGAUCACCCAUGUAUUUCUAUGUUCAGAGUCAGAAGGCGGUUUAU [Eternabot (L2) Solution 20] (Eterna round: R97, puzzle: Exclusion 5) | – | – | – | 190 | 72.4 | –
GAAAAGGUAGGAUAUACGAAAAAAAAGGGUUGAAAAAAAACACAUGAGGAUCACCCAUGUAGAAGGACCAAAAG [salish99_ex2_r3_080] (puzzle: Exclusion 2) | 140 | 19.7 | 26 | – | – | –
GGAUCAUGAGGAUAUCGAGGUUAGUACAUGAGGAUCACCCAUGUUAUCCAGGUCUCGUUUCGAGAAGGCAUGAUCC [LRO-Ex5-10] (puzzle: Exclusion 5) | – | 21.2 | – | – | – | –
UUGAAGUAAGGAUAUACAUGAGGAUCACCCAUGUAAAGGAAAGUAAUGGGAGUAGGAAGUAGAAGGUACGAGGA [JR_Exclu3_Sub062] (puzzle: Exclusion 3) | 49 | 66.6 | 134 | – | – | –

Reference: the supplement of paper PMC9170038
